Read-outs that look alike come from different tables or passages of the source. Blank lines part the entries; values can stand above or below the substance they belong to.
Assays:
[1] = biological target: MD2 (Homo sapiens) (UniProt Q9Y6Y9); conditions: cited from earlier work
[2] = biological target: MD2-TLR4 complex (rat (endogenous in NRK-52E)) (UniProt Q9QX05)
[3] = biological target: MD2-TLR4 complex (rat (endogenous in NRK-52E)) (UniProt Q9QX05); remark: listed apart in the source
[4] = biological target: MD2 (Homo sapiens) (UniProt Q9Y6Y9); conditions: cited from earlier work; remark: listed apart in the source

Sequence of UniProt Q9Y6Y9 (Q9Y6Y9 19-160): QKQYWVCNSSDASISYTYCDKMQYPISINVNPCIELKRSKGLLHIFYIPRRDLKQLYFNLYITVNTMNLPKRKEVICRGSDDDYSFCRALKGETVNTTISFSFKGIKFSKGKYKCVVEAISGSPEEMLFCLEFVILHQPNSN
Sequence of UniProt Q9QX05 (Q9QX05 whole entry, looked up, one chain of several): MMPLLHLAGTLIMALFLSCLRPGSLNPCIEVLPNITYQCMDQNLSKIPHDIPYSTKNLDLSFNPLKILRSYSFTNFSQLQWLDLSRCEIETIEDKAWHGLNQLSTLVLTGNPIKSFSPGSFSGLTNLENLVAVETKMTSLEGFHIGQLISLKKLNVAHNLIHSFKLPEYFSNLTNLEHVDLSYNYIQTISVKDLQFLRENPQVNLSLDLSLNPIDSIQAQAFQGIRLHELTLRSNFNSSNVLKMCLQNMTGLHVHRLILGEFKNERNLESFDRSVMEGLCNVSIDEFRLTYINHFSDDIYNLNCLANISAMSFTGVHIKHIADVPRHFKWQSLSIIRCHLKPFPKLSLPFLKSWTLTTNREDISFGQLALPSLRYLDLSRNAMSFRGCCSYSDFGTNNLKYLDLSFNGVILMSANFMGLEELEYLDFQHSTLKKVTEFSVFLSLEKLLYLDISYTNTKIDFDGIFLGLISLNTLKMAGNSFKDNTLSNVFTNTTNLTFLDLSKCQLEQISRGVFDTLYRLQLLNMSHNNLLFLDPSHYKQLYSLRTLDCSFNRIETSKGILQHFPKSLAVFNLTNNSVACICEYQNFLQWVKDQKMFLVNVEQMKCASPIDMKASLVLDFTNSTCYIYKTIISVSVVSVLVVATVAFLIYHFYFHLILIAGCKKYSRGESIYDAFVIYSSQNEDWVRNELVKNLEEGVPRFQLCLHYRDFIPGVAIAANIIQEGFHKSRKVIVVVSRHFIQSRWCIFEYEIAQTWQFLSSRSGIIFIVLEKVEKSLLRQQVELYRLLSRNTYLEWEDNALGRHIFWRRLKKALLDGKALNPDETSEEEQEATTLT

Substance: Angiotensin II (from UniProt P01019)
Kd [1]: 200 µM

IL-6 content of the media of NRK-52E cells (ELISA), Ang II 1 μM against control [2]: 15 pg/mL
IL-6 content of the media of NRK-52E cells (ELISA), Ang II 1 μM against control [3]: 61 pg/mL
Substance: Angiotensin II (peptide)

Substance: HMGB1 (from UniProt P09429)
Kd [4]: 0.6 µM

— article PMC7855779
